Experimental findings from patent US20240271091A1 (University of Pennsylvania, published 2024) are described below.

The target in the assay is BSA (UniProt P02769 25-607). Put plainly: UV photocrosslinking of hIgG2 in the presence of BSA.

No end group written: not given here.

B1: photoreactive Protein G (pAbBD), BPA position not stated (designed binder)
chain: MTFKLIINGKTLKGEITIEAVDAAEAEKIFKQYANDYGIDGEWTYDDATKTFTVTE
modifications: also: contains benzoylphenylalanine (BPA), position not given here
B1: the binding result is “no binding (tested: 1% BSA solution (200-times molar excess))”.
